Target: T1, 6X His-tagged extracellular domain of canine PD-L1 (canine, UniProt E2RKZ5)
T1 construct: canine PD-L1 (CD274), extracellular domain; also called cPD-L1-His; His-tagged cPD-L1 protein; source: ExpiCHO cell system, purified (Ni-NTA agarose)
Test: BLI; Octet RED384; His-tagged cPD-L1 loaded on NTA biosensor at 200 nmol/L; 12C10E4 antibody at 50, 100, 200 nmol/L in kinetic buffer
Conditions: both partners purified

T1 sequence (E2RKZ5 entry or part of it): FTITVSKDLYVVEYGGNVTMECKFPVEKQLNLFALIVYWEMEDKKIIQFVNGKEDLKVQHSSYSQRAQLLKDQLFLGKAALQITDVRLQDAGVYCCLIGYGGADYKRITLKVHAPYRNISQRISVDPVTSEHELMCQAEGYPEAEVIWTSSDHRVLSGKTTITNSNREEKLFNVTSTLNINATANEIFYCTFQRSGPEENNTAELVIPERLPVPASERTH

- Kd: 8.6 nM
B1: 12C10E4 chimeric antibody (12C10E4-cIgG; murine variable regions, canine IgG2 and canine kappa constant regions) (antibody, V domains shown)
VH: QVQLKQSGPGLVQPSQSLSITCTISGFSLTSFGVHWVRQSPGKGLEWLGVIWSGGSTDYNAAFTSRLSINKDNSKSQVFFKMNSLQADDTAIYYCARGGGPDWYFDVWGTGTTVTVSS
VL: DIVLTQSPASLAVSLGQRATISCRASESVEYYGTSLMQWYQQKPGQPPKLLIFAASNVKSGVPARFSGSGSGTDFSLNIHPVEEDDIAMYFCQQSGKVPHTFGGGTKLEIK
notes: VH of the mouse hybridoma 12C10E4; canine IgG2 heavy constant chain (called equivalent to human IgG1); VL of the mouse hybridoma 12C10E4; canine kappa light constant chain; also called 12C chimeric antibody; 12C cPD-L1 chimera antibody; source: ExpiCHO-S, transfected, purified (protein A agarose)
